# In paper PMC1802081 (BMC Structural Biology, 2007):
# T1: BMP-7 (CHO cells, R&D Systems) (UniProt P18075 293-431, biotin (biotinylated for the biosensor; site not stated))
# T1 construct: bone morphogenetic protein 7 (BMP-7), mature ligand; source: bought: R&D Systems (CHO cells)
# T1 sequence (looked up): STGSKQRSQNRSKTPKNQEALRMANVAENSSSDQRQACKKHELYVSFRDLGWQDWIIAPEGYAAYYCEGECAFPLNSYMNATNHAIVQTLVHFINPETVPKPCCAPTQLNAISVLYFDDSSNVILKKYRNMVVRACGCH
# T2: BMPR-II receptor ectodomain (UniProt Q13873 27-150)
# T2 construct: BMP type II receptor (BMPR-II), extracellular domain; also called BMPR-IIECD; source: expressed and purified as described earlier [28]
# T2 sequence (looked up): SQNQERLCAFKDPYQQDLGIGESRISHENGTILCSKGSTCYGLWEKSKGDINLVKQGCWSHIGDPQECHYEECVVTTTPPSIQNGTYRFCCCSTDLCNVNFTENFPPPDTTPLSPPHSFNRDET
# T3: ActR-IIBECD L61P (UniProt P27040 19-137, L61P)
# T3 construct: also called ActR-IIBL61P; source: E. coli OrigamiB (DE3), purified (Ni2+-IMAC, thrombin cleavage, anion exchange, RP-HPLC)
# T3 sequence (looked up): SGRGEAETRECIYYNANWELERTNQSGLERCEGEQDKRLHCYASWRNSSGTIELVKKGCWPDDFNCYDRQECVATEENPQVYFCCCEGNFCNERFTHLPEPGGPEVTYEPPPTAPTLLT
# T4: ActR-IIBECD L61A (UniProt P27040 19-137, L61A)
# T4 construct: also called ActR-IIBL61A; source: E. coli OrigamiB (DE3), purified (Ni2+-IMAC, thrombin cleavage, anion exchange, RP-HPLC)
# T4 sequence (looked up): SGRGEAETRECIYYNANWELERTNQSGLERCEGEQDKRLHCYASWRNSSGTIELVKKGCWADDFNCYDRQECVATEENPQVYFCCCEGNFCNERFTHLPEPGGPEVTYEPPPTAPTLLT
# B1: ActR-IIBECD wildtype (activin type IIB receptor ectodomain) (receptor, UniProt P27040 19-137, looked up)
# chain: SGRGEAETRECIYYNANWELERTNQSGLERCEGEQDKRLHCYASWRNSSGTIELVKKGCWLDDFNCYDRQECVATEENPQVYFCCCEGNFCNERFTHLPEPGGPEVTYEPPPTAPTLLT
# notes: source: E. coli OrigamiB (DE3), purified (Ni2+-IMAC, thrombin cleavage, anion exchange, RP-HPLC)
# How the values were obtained:
# Details in all cases: both partners purified
# [1] = molecular target: T5, binary complex BMP-2:BMPR-IAECD (UniProt P12643 283-396; P36894 24-152); experiment: ITC; isothermal titration calorimetry, 25°C; who was titrated is not told
# T5 construct: bone morphogenetic protein 2 (BMP-2), mature ligand, as m1; BMP type IA receptor (BMPR-IA), extracellular domain, as m25; also called BMP-2 complexed with BMPR-IAECD; BMP-2:(BMPR-IAECD)2; source: formed from the purified proteins and purified as described [58]; copies: 2 + 2
# [2] = molecular target: T1, BMP-7 (CHO cells, R&D Systems); experiment: SPR; BIACORE 2000; biotinylated ligand on a streptavidin-modified CM5 chip (about 200 RU); receptor ectodomain as analyte at 1, 2, 3, 5, 10, 20 and 50 uM; HBS500 (10 mM HEPES pH 7.4, 500 mM NaCl, 3.4 mM EDTA, 0.005% P20); apparent KD from the dose dependence of equilibrium binding
# [3] = molecular target: T1, BMP-7 (CHO cells, R&D Systems); experiment: as above; remark: listed apart in the source
# [4] = molecular target: T2, BMPR-II receptor ectodomain; experiment: as above
# [5] = molecular target: B1; experiment: as above
# [6] = molecular target: T6, ActR-II receptor ectodomain (UniProt P27037 20-135); experiment: as above
# T6 construct: activin receptor type II (ActR-II), extracellular domain; also called ActR-IIECD; source: expressed and purified as described earlier [28]
# [7] = molecular target: T6, ActR-II receptor ectodomain; experiment: as above; remark: listed apart in the source
# ActR-IIBECD L61P = molecular target: T3, ActR-IIBECD L61P; experiment: as above
# ActR-IIBECD L61A = molecular target: T4, ActR-IIBECD L61A; experiment: as above
# [8] = molecular target: B1; experiment: as above; remark: listed apart in the source
Binder,dH [1] [kcal/mol],Kd [2] [nM],Kd [3] [nM],Kd [4] [nM],Kd [5] [nM],Kd [6] [nM],Kd [7] [nM],Kd (ActR-IIBECD L61P) [nM],Kd (ActR-IIBECD L61A) [nM],Kd [8] [nM]
B1,14,2800,3600,–,–,–,–,–,–,–
"activin A (Sf9 cells) (ligand, UniProt P08476 311-426, looked up, biotin (biotinylated for the biosensor; site not stated), activin A (dimer of inhibin beta A chains), mature ligand; also called Act-A; source: Sf9 cells [59]) GLECDGKVNICCKKQFFVSFKDIGWNDWIIAPSGYHANYCEGECPSHIAGTSGSSLSFHSTVINHYRMRGHSPFANLKSCCVPTKLRPMSMLYYDDGQNIIKKDIQNMIVEECGCS",–,–,–,8700,60,230,~250,180000,2000,65
